Target: Flag-6xHis-TET2^CD (human)
Assay: pull-down

Flag-WT1 (purified recombinant) (from UniProt P19544 1-449) (natural protein)
stoichiometry N: 1

From publication PMC4336627
